T1: human IL-23R-mouse Fc fusion protein (human; mouse, UniProt Q5VWK5 24-353)
T1 construct: Expressed in FreeStyle 293 cells; also called human IL-23R-Fc fusion protein; not shown: Fc region of mouse immunoglobulin IgG2a as encoded by vector pFUSE-mIgG2A-Fc2 (InvivoGen); limits and any linker not sta
T1 sequence: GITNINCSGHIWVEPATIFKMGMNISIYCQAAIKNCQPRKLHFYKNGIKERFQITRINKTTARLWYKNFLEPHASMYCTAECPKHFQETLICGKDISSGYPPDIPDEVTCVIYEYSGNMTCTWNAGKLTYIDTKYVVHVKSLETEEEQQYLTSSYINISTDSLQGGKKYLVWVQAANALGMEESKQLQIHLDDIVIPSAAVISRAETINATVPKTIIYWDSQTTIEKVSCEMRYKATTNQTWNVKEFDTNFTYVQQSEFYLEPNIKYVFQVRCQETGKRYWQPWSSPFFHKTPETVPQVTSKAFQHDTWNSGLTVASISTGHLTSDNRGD

T2: human IL-23R on Kit-225 cells (human, UniProt Q5VWK5 24-629)
T2 sequence: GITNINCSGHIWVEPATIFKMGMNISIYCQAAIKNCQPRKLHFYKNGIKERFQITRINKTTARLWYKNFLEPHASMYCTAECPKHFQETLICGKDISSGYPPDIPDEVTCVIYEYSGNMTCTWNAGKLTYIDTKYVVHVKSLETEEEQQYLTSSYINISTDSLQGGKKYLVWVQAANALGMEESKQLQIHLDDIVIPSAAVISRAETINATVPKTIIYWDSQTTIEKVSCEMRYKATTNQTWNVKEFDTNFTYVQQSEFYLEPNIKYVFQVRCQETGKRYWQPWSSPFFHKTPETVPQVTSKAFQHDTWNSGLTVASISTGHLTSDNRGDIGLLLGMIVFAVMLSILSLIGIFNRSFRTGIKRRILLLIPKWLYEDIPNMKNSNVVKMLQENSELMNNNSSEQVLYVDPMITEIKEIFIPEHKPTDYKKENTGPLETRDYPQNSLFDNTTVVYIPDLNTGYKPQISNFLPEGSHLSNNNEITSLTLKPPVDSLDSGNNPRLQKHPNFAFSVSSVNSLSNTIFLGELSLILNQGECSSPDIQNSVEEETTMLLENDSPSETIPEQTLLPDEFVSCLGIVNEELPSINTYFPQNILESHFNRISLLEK


What was measured:
[1] = target: T1, human IL-23R-mouse Fc fusion protein; assay: antigen ELISA, human IL-23R-mouse Fc immobilized, HRP anti-human IgG, chemiluminescence
Description: (§1) The present inventors used an antigen ELISA to measure the antigen-specific binding activities of the fully human antibodies constructed in the above-described Example. A human or monkey IL-23R-Fc fusion protein was immobilized onto a Maxisorp 384-well plate (Nunc, Inc.) at a concentration of 500 ng/mL. A blocking agent (Blocking One; Nacalai Tesque, Inc.) was added thereto and allowed to stand at room temperature for 1 hour, followed by washing twice with a wash buffer [TPBS: 0.05% Tween-20-containing phosphate buffered saline (PBS)], and each of the purified antibody samples was suitably serially diluted and added thereto. Incubation was performed at room temperature for 1 hour, followed by washing four times with TPBS, and HRP-labeled anti-human IgG antibody (DAKO) which was 2000-fold diluted with dilution buffer (Blocking One which was two-fold diluted with PBS) was added as secondary antibody. Incubation was performed at room temperature for 1 hour, followed by washing four times with a washing buffer. […] of BM-chemiluminescence ELISA substrate (POD) (Roche Diagnostics) that is a reagent for detecting chemiluminescence was added thereto and the amount of chemiluminescence was measured with an EnVision counter (Perkin Elmer). Each of the antibodies was tested in duplicate, and the EC 50 was analyzed by curve fitting.

[2] = target: T3, monkey IL-23R-mouse Fc fusion protein (monkey; mouse); assay: antigen ELISA, monkey IL-23R-mouse Fc immobilized, HRP anti-human IgG, chemiluminescence
T3 construct: extracellular domain; also called monkey IL-23R-Fc fusion protein
Description: as §1

[3] = target: T2, human IL-23R on Kit-225 cells; assay: cell-based or functional assay
[4] = target: T1, human IL-23R-mouse Fc fusion protein; assay: antigen ELISA, human IL-23R-mouse Fc immobilized, HRP anti-mouse Ig, chemiluminescence
Description: (§2) The present inventors used an antigen ELISA to measure the antigen-specific binding activity of the antibody. The human or monkey IL-23R-Fc fusion protein was immobilized onto a Maxisorp 384-well plate (Nunc, Inc.) at a concentration of 500 ng/mL. A blocking agent (Blocking One; Nacalai Tesque, Inc.) was added thereto and allowed to stand at room temperature for 1 hour, followed by washing twice with a wash buffer [TPBS: a phosphate buffered saline (PBS) containing 0.05% Tween-20], and the purified antibody samples were suitably serially diluted and added thereto. Incubation was performed at room temperature for 1 hour, followed by washing four times with TPBS, and HRP-rabbit anti-mouse Ig antibody (DAKO) which was 2000-fold diluted with a dilution buffer (Blocking One which was two-fold diluted with PBS) was added. Incubation was performed at room temperature for 1 hour, followed by washing four times with a wash buffer. 40 μL of BM-chemiluminescence ELISA substrate (POD) (Roche Diagnostics), which is a reagent for detecting chemical luminescence, was added, and the amount of chemiluminescence was measured with an EnVision counter (Perkin Elmer). Each antibody was tested in duplicate and the EC50 was analyzed by curve fitting. […]

[5] = target: T3, monkey IL-23R-mouse Fc fusion protein; assay: antigen ELISA, monkey IL-23R-mouse Fc immobilized, HRP anti-mouse Ig, chemiluminescence
Description: as §2

Row | EC50 [1] [µg/mL] | EC50 [2] [µg/mL] | Human IL-23-inducible Kit-225 cell proliferation inhibitory activity, IC50 [3] [µg/mL] | EC50 [4] [µg/mL] | EC50 [5] [µg/mL] | Binder
1 | 0.0176 | 0.0124 | 0.00309 | – | – | fully human 25-3-1 (antibody, human IgG1, kappa, V domains shown, human Ig gamma1 / kappa) VH: QVQLQESGPGLVKPSQTLSLTCSVSGGSIDSGDHYWTWIRQHPGKGLEWIGYIYSSGHTYYSPSLKSRVTISVDTSKNQFSLRLSSVTAADTAVYYCARVGDYEWFDTWGQGTLVTVSS VL: DIVMTQSPDSLAVSLGERATINCKSSQTILYPSNNMNYLGWYQQRAGQSPRLLIYWASTRESGVPDRFSGSGSGTDFTLTISSLQAEDVAVYYCQQYYSSLPTFGQGTKVEIKR
2 | – | – | – | 0.021 | 0.028 | 25-3 (chimeric) (antibody, V domains shown, also called antibody (chimeric antibody) named 25-3) VH: QVQLQESGPGQVKPSQTLSLTCSVSGGSIDSGDHYWTWIRQHPGEVLEWIGYIYSSGHTYYSPSLKSRLTMSLDTSKNQFSLRLSSVTAADTAVYYCARVGDYEWFDTWGQGTLVTVSS VL: DIVMTQSPDSLAVSLGERATINCKSSQTILYPSNNMNYLGWYQQRAGQSPRLLIYWASTRESGVPDRFSGSGSGTDFTLTISSLQAEDVAVYYCQQYYSSLPTFGQGTKVEIKR
3 | 0.0164 | 0.0122 | 0.00266 | – | – | fully human 25-3-2 (antibody, human IgG1, kappa, V domains shown, human Ig gamma1 / kappa) VH: QVQLQESGPGLVKPSQTLSLTCSVSGGSIDSGDHYWTWIRQHPGKGLEWIGYIYSSGHTYYSPSLKSRVTISVDTSKNQFSLRLSSVTAADTAVYYCARVGDYEWFDTWGQGTLVTVSS VL: DIVMTQSPDSLAVSLGERATINCKSSQTILYPSNNMNYLGWYQQKPGQSPRLLIYWASTRESGVPDRFSGSGSGTDFTLTISSLQAEDVAVYYCQQYYSSLPTFGQGTKVEIKR
4 | 0.0223 | 0.0121 | 0.00348 | – | – | fully human 25-3-4 (antibody, human IgG1, kappa, V domains shown, human Ig gamma1 / kappa) VH: QVQLQESGPGLVKPSQTLSLTCSVSGGSISSGDHYWTWIRQHPGKGLEWIGYIYSSGHTYYSPSLKSRVTISVDTSKNQFSLRLSSVTAADTAVYYCARVGDYEWFDTWGQGTLVTVSS VL: DIVMTQSPDSLAVSLGERATINCKSSQTILYPSNNMNYLGWYQQKPGQSPRLLIYWASTRESGVPDRFSGSGSGTDFTLTISSLQAEDVAVYYCQQYYSSLPTFGQGTKVEIKR
5 | 0.019 | 0.0123 | 0.00225 | – | – | fully human 25-3 (antibody, human IgG1, kappa, V domains shown, Human Ig gamma1 / human kappa constant regions; expressed in CHO-K1SV cells; also called fully human antibody of 25-3) VH: QVQLQESGPGQVKPSQTLSLTCSVSGGSIDSGDHYWTWIRQHPGEVLEWIGYIYSSGHTYYSPSLKSRLTMSLDTSKNQFSLRLSSVTAADTAVYYCARVGDYEWFDTWGQGTLVTVSS VL: DIVMTQSPDSLAVSLGERATINCKSSQTILYPSNNMNYLGWYQQRAGQSPRLLIYWASTRESGVPDRFSGSGSGTDFTLTISSLQAEDVAVYYCQQYYSSLPTFGQGTKVEIKR
6 | 0.0221 | 0.0121 | 0.00568 | – | – | fully human 25-3-3 (antibody, human IgG1, kappa, V domains shown, human Ig gamma1 / kappa) VH: QVQLQESGPGLVKPSQTLSLTCSVSGGSISSGDHYWTWIRQHPGKGLEWIGYIYSSGHTYYSPSLKSRVTISVDTSKNQFSLRLSSVTAADTAVYYCARVGDYEWFDTWGQGTLVTVSS VL: DIVMTQSPDSLAVSLGERATINCKSSQTILYPSNNMNYLGWYQQRAGQSPRLLIYWASTRESGVPDRFSGSGSGTDFTLTISSLQAEDVAVYYCQQYYSSLPTFGQGTKVEIKR
